Test results taken from the supplement of paper PMC9112550, “Optimization of the antimicrobial peptide Bac7 by deep mutational scanning” (BMC Biology, 2022).

tested on: Escherichia coli TOP10; assay: shrunken log2 fold change of peptide-encoding DNA abundance (4.5 h post-induction vs induction); higher = less antimicrobial activity (less host growth inhibition); details: time post-induction: 4.5 h; library: site-saturation at positions 5, 18, 19, 20
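Also: peptides expressed intracellularly from a pBAD plasmid library in pooled LB shake-flask culture, induced with 0.3% L-arabinose, DNA abundance read by NGS, three biological replicates, DESeq2 with apeglm shrinkage.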

Row | Sequence | shrunken log2 fold change
1 | RRIRARPPRLPRPRPRPFFIPRP | -0.211
2 | RRIRARPPRLPRPRPRPFGDPRP | 0.483
3 | RRIRARPPRLPRPRPRPFGKPRP | 0.0252
4 | RRIRARPPRLPRPRPRPFGRPRP | 0.547
5 | RRIRARPPRLPRPRPRPFGTPRP | -0.194
6 | RRIRARPPRLPRPRPRPFGYPRP | 0.167
7 | RRIRARPPRLPRPRPRPFIFPRP | 0.419
8 | RRIRARPPRLPRPRPRPFILPRP | -0.39
9 | RRIRARPPRLPRPRPRPFIYPRP | -0.264
10 | RRIRARPPRLPRPRPRPFLHPRP | 0.0154
11 | RRIRARPPRLPRPRPRPFMAPRP | -0.163
12 | RRIRARPPRLPRPRPRPFMPPRP | -0.149
13 | RRIRARPPRLPRPRPRPFNCPRP | -0.357
14 | RRIRARPPRLPRPRPRPFPPPRP | 0.332
15 | RRIRARPPRLPRPRPRPFQFPRP | -0.158
16 | RRIRARPPRLPRPRPRPFRFPRP | 0.0596
17 | RRIRARPPRLPRPRPRPFRVPRP | -0.19
18 | RRIRARPPRLPRPRPRPFSIPRP | 0.111
19 | RRIRARPPRLPRPRPRPFTIPRP | -0.142
20 | RRIRARPPRLPRPRPRPFTPPRP | -0.0978
21 | RRIRARPPRLPRPRPRPFVEPRP | 0.108
22 | RRIRARPPRLPRPRPRPFVIPRP | 0.0345

Row | Sequence | shrunken log2 fold change
23 | RRIRARPPRLPRPRPRPFVNPRP | 0.164
24 | RRIRARPPRLPRPRPRPFWEPRP | 0.269
25 | RRIRARPPRLPRPRPRPFYQPRP | -0.00727
26 | RRIRARPPRLPRPRPRPGCTPRP | 0.552
27 | RRIRARPPRLPRPRPRPGDMPRP | 0.374
28 | RRIRARPPRLPRPRPRPGGIPRP | 0.254
29 | RRIRARPPRLPRPRPRPGHDPRP | 0.215
30 | RRIRARPPRLPRPRPRPGHKPRP | -0.197
31 | RRIRARPPRLPRPRPRPGIHPRP | 0.37
32 | RRIRARPPRLPRPRPRPGMDPRP | 0.543
33 | RRIRARPPRLPRPRPRPGMQPRP | 0.094
34 | RRIRARPPRLPRPRPRPGMWPRP | 0.485
35 | RRIRARPPRLPRPRPRPGMYPRP | -0.111
36 | RRIRARPPRLPRPRPRPGNKPRP | -0.186
37 | RRIRARPPRLPRPRPRPGNNPRP | -0.0708
38 | RRIRARPPRLPRPRPRPGRLPRP | 0.895
39 | RRIRARPPRLPRPRPRPGSPPRP | 0.394
40 | RRIRARPPRLPRPRPRPGTEPRP | 0.376
41 | RRIRARPPRLPRPRPRPGVGPRP | 0.805
42 | RRIRARPPRLPRPRPRPGWHPRP | 0.378
43 | RRIRARPPRLPRPRPRPGYKPRP | -0.268
44 | RRIRARPPRLPRPRPRPGYPPRP | 0.0269

Row | Sequence | shrunken log2 fold change
45 | RRIRARPPRLPRPRPRPGYYPRP | -0.254
46 | RRIRARPPRLPRPRPRPHDSPRP | 0.037
47 | RRIRARPPRLPRPRPRPHFIPRP | 0.179
48 | RRIRARPPRLPRPRPRPHIKPRP | -0.388
49 | RRIRARPPRLPRPRPRPHKCPRP | -0.205
50 | RRIRARPPRLPRPRPRPHKIPRP | -0.0893
51 | RRIRARPPRLPRPRPRPHPFPRP | 0.0322
52 | RRIRARPPRLPRPRPRPHRFPRP | -0.176
53 | RRIRARPPRLPRPRPRPHSRPRP | -0.0946
54 | RRIRARPPRLPRPRPRPHTDPRP | -0.111
55 | RRIRARPPRLPRPRPRPHVAPRP | 0.114
56 | RRIRARPPRLPRPRPRPHVNPRP | -0.467
57 | RRIRARPPRLPRPRPRPHVPPRP | -0.242
58 | RRIRARPPRLPRPRPRPHWCPRP | 0.0773
59 | RRIRARPPRLPRPRPRPHYAPRP | -0.0521
60 | RRIRARPPRLPRPRPRPHYEPRP | -0.234
61 | RRIRARPPRLPRPRPRPHYMPRP | -0.381
62 | RRIRARPPRLPRPRPRPIAMPRP | 0.207
63 | RRIRARPPRLPRPRPRPICIPRP | 0.227
64 | RRIRARPPRLPRPRPRPIFYPRP | -0.0773
65 | RRIRARPPRLPRPRPRPIGEPRP | -0.0613
66 | RRIRARPPRLPRPRPRPIHIPRP | -0.24

Row | Sequence | shrunken log2 fold change
67 | RRIRARPPRLPRPRPRPIHKPRP | -0.0416
68 | RRIRARPPRLPRPRPRPIIIPRP | -0.235
69 | RRIRARPPRLPRPRPRPIKLPRP | -0.16
70 | RRIRARPPRLPRPRPRPILCPRP | 0.165
71 | RRIRARPPRLPRPRPRPIMDPRP | -0.0229
72 | RRIRARPPRLPRPRPRPIMHPRP | -0.171
73 | RRIRARPPRLPRPRPRPINWPRP | 0.139
74 | RRIRARPPRLPRPRPRPIPIPRP | 0.354
75 | RRIRARPPRLPRPRPRPIQAPRP | -0.0205
76 | RRIRARPPRLPRPRPRPIQLPRP | -0.0651
77 | RRIRARPPRLPRPRPRPISAPRP | 0.294
78 | RRIRARPPRLPRPRPRPISEPRP | 0.0696
79 | RRIRARPPRLPRPRPRPISTPRP | -0.295
80 | RRIRARPPRLPRPRPRPITKPRP | -0.0507
81 | RRIRARPPRLPRPRPRPIVWPRP | 0.393
82 | RRIRARPPRLPRPRPRPIWGPRP | 0.302
83 | RRIRARPPRLPRPRPRPIYMPRP | -0.11
84 | RRIRARPPRLPRPRPRPIYYPRP | -0.182
85 | RRIRARPPRLPRPRPRPKAIPRP | 0.496
86 | RRIRARPPRLPRPRPRPKASPRP | 0.256
87 | RRIRARPPRLPRPRPRPKEIPRP | 0.711
88 | RRIRARPPRLPRPRPRPKEVPRP | -0.0076

Row | Sequence | shrunken log2 fold change
89 | RRIRARPPRLPRPRPRPKGIPRP | -0.0515
90 | RRIRARPPRLPRPRPRPKGKPRP | 1.12
91 | RRIRARPPRLPRPRPRPKHAPRP | 0.757
92 | RRIRARPPRLPRPRPRPKIIPRP | -0.287
93 | RRIRARPPRLPRPRPRPKLTPRP | 0.167
94 | RRIRARPPRLPRPRPRPKQVPRP | 0.0289
95 | RRIRARPPRLPRPRPRPKRKPRP | 0.654
96 | RRIRARPPRLPRPRPRPKRTPRP | 0.553
97 | RRIRARPPRLPRPRPRPKSSPRP | 0.188
98 | RRIRARPPRLPRPRPRPKTIPRP | 0.038
99 | RRIRARPPRLPRPRPRPKTPPRP | 0.903
100 | RRIRARPPRLPRPRPRPKVAPRP | 0.698
101 | RRIRARPPRLPRPRPRPKWMPRP | 0.191
102 | RRIRARPPRLPRPRPRPKWRPRP | 0.176
103 | RRIRARPPRLPRPRPRPKYCPRP | -0.464
104 | RRIRARPPRLPRPRPRPLAYPRP | 0.293
105 | RRIRARPPRLPRPRPRPLCDPRP | 2.32
106 | RRIRARPPRLPRPRPRPLCPPRP | 0.0472
107 | RRIRARPPRLPRPRPRPLDMPRP | -0.00812
108 | RRIRARPPRLPRPRPRPLFLPRP | 0.0297
109 | RRIRARPPRLPRPRPRPLFNPRP | -0.064
